Assay results as given in IntAct's records for PubMed 14673118.

B1: Thioredoxin (Synechocystis sp. (strain PCC 6803 / Kazusa)), P52231 (parent)
chain: MSATPQVSDASFKEDVLDSELPVLVDFWAPWCGPCRMVAPVVDEISQQYEGKVKVVKLNTDENPNTASQYGIRSIPTLMIFKGGQRVDMVVGAVPKTTLASTLEKYL
partner: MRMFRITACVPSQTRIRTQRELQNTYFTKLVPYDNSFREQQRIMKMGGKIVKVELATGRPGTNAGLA
B2: Thioredoxin (Synechocystis sp. (strain PCC 6803 / Kazusa)), P52231 (parent)
chain: B1 chain
partner: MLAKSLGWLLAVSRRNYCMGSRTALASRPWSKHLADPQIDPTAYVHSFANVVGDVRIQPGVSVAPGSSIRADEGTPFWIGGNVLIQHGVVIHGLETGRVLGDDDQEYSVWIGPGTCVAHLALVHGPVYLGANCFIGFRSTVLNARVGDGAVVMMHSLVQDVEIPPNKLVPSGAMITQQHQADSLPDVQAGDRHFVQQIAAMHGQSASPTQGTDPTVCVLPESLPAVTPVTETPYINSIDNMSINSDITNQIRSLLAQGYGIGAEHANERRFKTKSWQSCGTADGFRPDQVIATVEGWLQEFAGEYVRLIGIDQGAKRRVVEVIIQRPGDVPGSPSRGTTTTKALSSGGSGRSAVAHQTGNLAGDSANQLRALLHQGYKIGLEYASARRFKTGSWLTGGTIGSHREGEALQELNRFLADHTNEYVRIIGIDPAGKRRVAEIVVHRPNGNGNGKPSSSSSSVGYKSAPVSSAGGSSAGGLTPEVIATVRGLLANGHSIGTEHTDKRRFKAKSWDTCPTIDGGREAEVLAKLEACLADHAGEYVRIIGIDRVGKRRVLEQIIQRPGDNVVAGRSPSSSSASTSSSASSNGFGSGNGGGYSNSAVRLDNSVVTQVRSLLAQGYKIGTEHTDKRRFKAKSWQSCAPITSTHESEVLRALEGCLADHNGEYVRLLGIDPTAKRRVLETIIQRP
B3: Thioredoxin (Synechocystis sp. (strain PCC 6803 / Kazusa)), P52231 (parent)
chain: B1 chain
partner: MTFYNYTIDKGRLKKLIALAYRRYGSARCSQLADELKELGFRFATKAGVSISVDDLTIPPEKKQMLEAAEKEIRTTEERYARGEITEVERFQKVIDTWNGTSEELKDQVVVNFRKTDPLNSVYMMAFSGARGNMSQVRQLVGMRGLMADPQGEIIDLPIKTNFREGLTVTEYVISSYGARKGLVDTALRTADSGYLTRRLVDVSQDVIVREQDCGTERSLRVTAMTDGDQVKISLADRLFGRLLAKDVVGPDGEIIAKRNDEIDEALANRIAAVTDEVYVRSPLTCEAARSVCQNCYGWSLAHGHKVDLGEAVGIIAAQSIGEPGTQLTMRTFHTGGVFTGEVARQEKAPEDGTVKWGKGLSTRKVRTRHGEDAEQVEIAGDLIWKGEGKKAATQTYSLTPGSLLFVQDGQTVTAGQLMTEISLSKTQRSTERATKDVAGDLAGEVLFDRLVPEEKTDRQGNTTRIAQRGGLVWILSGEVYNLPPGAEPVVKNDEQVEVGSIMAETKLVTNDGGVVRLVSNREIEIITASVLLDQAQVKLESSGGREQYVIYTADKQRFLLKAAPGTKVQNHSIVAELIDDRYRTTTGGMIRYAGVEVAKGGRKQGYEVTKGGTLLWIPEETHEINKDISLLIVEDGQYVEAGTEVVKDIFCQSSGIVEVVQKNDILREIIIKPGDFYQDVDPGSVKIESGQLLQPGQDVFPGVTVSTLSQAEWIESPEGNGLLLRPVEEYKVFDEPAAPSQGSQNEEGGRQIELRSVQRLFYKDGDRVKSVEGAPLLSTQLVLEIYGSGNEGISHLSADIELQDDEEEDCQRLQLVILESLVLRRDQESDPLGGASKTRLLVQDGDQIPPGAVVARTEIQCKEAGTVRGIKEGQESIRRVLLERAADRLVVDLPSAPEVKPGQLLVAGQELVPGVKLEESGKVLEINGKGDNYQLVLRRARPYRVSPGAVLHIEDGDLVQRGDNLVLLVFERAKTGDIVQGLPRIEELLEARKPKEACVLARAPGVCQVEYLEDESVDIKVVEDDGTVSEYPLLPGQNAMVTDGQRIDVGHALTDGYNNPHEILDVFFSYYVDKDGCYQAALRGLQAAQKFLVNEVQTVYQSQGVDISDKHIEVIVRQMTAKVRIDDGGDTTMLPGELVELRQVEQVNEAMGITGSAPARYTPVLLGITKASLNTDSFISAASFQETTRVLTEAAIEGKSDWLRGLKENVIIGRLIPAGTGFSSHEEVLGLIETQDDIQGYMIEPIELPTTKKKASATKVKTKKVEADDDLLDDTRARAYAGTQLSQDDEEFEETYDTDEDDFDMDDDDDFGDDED
B4: Thioredoxin (Synechocystis sp. (strain PCC 6803 / Kazusa)), P52231 (parent)
chain: B1 chain
partner: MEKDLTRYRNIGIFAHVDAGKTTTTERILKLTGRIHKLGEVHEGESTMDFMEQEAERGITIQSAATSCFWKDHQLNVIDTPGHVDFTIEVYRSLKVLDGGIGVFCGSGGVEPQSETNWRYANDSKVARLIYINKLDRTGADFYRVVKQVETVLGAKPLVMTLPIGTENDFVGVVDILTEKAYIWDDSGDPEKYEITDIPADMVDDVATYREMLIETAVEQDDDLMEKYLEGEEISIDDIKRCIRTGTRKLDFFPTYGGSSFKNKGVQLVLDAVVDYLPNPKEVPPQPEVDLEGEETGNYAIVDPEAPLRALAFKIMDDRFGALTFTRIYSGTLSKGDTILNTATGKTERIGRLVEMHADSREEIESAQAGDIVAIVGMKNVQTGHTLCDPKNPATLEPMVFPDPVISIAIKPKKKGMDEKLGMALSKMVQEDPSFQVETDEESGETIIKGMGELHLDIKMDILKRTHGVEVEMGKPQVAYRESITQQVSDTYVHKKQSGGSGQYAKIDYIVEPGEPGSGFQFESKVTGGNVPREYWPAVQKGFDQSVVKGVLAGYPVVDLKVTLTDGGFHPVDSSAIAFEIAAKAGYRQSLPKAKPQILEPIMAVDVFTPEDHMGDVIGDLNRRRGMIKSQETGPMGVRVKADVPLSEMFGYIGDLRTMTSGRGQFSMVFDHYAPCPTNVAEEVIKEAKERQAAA
B5: Thioredoxin (Synechocystis sp. (strain PCC 6803 / Kazusa)), P52231 (parent)
chain: B1 chain
partner: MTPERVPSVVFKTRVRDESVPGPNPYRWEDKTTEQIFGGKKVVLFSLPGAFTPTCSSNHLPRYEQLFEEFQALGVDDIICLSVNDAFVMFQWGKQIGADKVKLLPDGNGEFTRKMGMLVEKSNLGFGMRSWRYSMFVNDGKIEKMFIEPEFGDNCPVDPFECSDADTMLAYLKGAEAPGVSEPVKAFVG

Variants of: B1
Details: with pyc1_syny3 apcC

effect of a mutation on the interaction | Variant
increasing interaction | C35S

Variants of: B2
Details: with ccmm_syny3 ccmM

effect of a mutation on the interaction | Variant
increasing interaction | C35S

Variants of: B3
Details: with rpoc2_syny3 rpoC2, P73334

effect of a mutation on the interaction | Variant
increasing interaction | C35S

Variants of: B4
Details: with efg1_syny3 fusA

effect of a mutation on the interaction | Variant
increasing interaction | C35S

Variants of: B5
Details: with prx5_syny3 prx5, P73728

effect of a mutation on the interaction | Variant
increasing interaction | C35S
